From paper PMC5358978, “Nuclear export receptor CRM1 recognizes diverse conformations in nuclear export signals” (eLife, 2017)

Assays:
Conditions in all cases: both partners purified
[1] = biological target: T1, human CRM1 (HsCRM1), wild type (human, UniProt O14980 1-1071); assay: differential bleaching; competition titration of MBP-NES to FITC-PKI NES and CRM1 with excess RanGTP; triplicate; fitted with a set of direct titrations
T1 construct: human CRM1 / Exportin-1 (XPO1); Always used together with RanGTP (ScRanGTP in the pull-downs); also called Exportin-1; XPO1

[2] = biological target: T1, human CRM1 (HsCRM1), wild type; assay: pull-down; ~10 µg immobilized GST-NES, 2.5 µM HsCRM1 and 7.5 µM ScRanGTP in 200 µL
[3] = biological target: T2, human CRM1 mutant HsCRM1(K568M) (human, UniProt O14980 1-1071, K568M); assay: pull-down; ~5 µg immobilized GST-NESs, 7.5 µM ScRanGTP and 2.5 µM HsCRM1 (wild type or mutant) in 200 µL
T2 construct: human CRM1 / Exportin-1 (XPO1) with K568M; Used together with RanGTP

[4] = biological target: T3, human CRM1 mutant HsCRM1(K568A) (human, UniProt O14980 1-1071, K568A); assay: as above
T3 construct: human CRM1 / Exportin-1 (XPO1) with K568A; Used together with RanGTP

[5] = biological target: T1, human CRM1 (HsCRM1), wild type; assay: pull-down; ~5 µg immobilized GST-NESs, 500 nM HsCRM1 (wild type or mutant) and 1.5 µM ScRanGTP in 1 mL
[6] = biological target: T2, human CRM1 mutant HsCRM1(K568M); assay: as above
[7] = biological target: T3, human CRM1 mutant HsCRM1(K568A); assay: as above
[8] = biological target: engineered ScCRM1 (residues 1-1058, △377-413, 537DLTVK541 to GLCEQ, V441D) (S. cerevisiae, UniProt P30822 1-1058, △377–413 | 537DLTVK541 to GLCEQ | V441D); assay: crystal structure; NES peptide bound to the engineered ScCRM1-RanGppNHp-Yrb1p complex; crystallised as in Fung et al., 2015
[9] = biological target: engineered ScCRM1(K579A) mutant (S. cerevisiae, UniProt P30822 1-1058, △377–413 | 537DLTVK541 to GLCEQ | V441D | K579A); assay: as above

T1 sequence (O14980 whole entry): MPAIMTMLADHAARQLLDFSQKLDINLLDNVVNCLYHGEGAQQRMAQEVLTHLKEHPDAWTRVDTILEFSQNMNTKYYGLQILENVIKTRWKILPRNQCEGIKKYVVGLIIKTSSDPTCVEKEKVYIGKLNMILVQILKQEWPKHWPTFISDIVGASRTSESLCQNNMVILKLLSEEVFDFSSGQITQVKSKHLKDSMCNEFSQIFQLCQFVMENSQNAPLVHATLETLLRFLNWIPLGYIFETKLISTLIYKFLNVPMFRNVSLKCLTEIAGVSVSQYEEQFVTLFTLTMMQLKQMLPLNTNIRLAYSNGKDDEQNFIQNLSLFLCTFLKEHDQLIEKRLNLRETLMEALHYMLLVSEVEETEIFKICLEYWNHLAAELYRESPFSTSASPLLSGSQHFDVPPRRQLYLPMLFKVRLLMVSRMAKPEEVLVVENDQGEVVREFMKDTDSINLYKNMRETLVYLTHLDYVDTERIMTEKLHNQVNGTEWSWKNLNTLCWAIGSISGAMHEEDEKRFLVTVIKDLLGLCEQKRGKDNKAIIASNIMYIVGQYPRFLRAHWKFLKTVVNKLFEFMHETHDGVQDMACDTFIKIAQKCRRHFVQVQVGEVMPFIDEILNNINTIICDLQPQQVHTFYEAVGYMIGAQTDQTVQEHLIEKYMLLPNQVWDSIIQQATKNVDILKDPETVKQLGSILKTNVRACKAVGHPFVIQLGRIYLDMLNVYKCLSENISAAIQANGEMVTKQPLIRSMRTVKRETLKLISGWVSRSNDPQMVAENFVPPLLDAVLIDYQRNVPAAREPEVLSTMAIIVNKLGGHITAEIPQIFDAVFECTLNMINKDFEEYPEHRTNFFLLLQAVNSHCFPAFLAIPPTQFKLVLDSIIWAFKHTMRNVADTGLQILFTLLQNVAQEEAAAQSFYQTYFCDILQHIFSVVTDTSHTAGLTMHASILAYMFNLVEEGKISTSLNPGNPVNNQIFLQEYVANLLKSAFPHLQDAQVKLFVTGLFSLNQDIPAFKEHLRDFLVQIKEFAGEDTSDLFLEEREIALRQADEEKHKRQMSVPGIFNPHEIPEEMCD
T3 sequence (O14980 whole entry K568A): as the sequence (O14980 whole entry) above, with K568A counted along it
T2 sequence (O14980 whole entry K568M): as the sequence (O14980 whole entry) above, with K568M counted along it

B1: MBP-mDia2 NES (wild type) (peptide)
chain: SVPEVEALLARLRAL
notes: mouse diaphanous homolog 3 (mDia2), residues 1179-1193; also called wild type mDia2^NES; not shown: MBP, N-terminal, kept
Kd [1]: 1.7 µM

B2: MBP-HDAC5 NES (peptide)
chain: EAETVSAMALLSVG
notes: Histone deacetylase 5 (HDAC5), residues 1082-1095; also called HDAC^NES; MBP-NES; not shown: MBP, N-terminal, kept
binding result [1]: binds

B3: MBP-Paxillin NES (peptide)
chain: RELDELMASLSDFKFMAQ
notes: Paxillin, residues 264-281; also called Pax^NES; MBP-NES; not shown: MBP, N-terminal, kept
binding result [1]: binds

B4: GST-CDC7 NES (peptide)
chain: QDLRKLCERLRGMDSSTP
notes: cell division cycle 7-related protein kinase (CDC7), residues 456-473; source: as described in Fung et al., 2015; not shown: GST, N-terminal, kept
binding result [2]: binds

B5: GST-DEAF1 peptide (false positive NES) (peptide)
chain: SWLYLEEMVNSLLNTAQQ
notes: Deformed Epidermal Autoregulatory Factor 1 homolog (DEAF1), residues 452-469; also called GST-NESs; source: as described in Fung et al., 2015; not shown: GST, N-terminal, kept
binding result [3]: binds | binding result [4]: binds

B6: GST-Hxk2 peptide (false positive NES) (peptide)
chain: DVPKELMQQIENFEKIFTV
notes: Hexokinase-2 (Hxk2), residues 18-36; also called GST-NESs; source: as described in Fung et al., 2015; not shown: GST, N-terminal, kept
binding result [4]: binds

B7: GST-X11L2 NES (peptide)
chain: SSLQELVQQFEALPGDLV
notes: source: as described in Fung et al., 2015; not shown: GST, N-terminal, kept
binding result [5]: binds | binding result [6]: binds | binding result [7]: binds

B8: mDia2 NES peptide (crystallised) (peptide)
peptide: GGSYSVPEVEALLARLRAL
notes: residues printed before the NES in the crystallised peptide; not of mDia2; mouse diaphanous homolog 3 (mDia2), residues 1179-1193; source: expressed and purified as described in Fung et al., 2015
binding result [8]: binds

B9: CDC7 NES peptide (crystallised) (peptide)
peptide: QDLRKLCERLRGMDSSTP
notes: cell division cycle 7-related protein kinase (CDC7), residues 456-473; Extra N-terminal residues such as those printed for mDia2 (GGSY) and FMRP-1b (GGS) may be present; source: expressed and purified as described in Fung et al., 2015
binding result [8]: binds

B10: X11L2 NES peptide (crystallised) (peptide)
peptide: SSLQELVQQFEALPGDLV
notes: Extra N-terminal residues such as those printed for mDia2 (GGSY) and FMRP-1b (GGS) may be present; source: expressed and purified as described in Fung et al., 2015
binding result [8]: binds

B11: FMRP NES peptide (crystallised) (peptide)
peptide: YLKEVDQLRLERLQI
notes: fragile X mental retardation protein (FMRP), residues 423-437; Extra N-terminal residues such as those printed for mDia2 (GGSY) and FMRP-1b (GGS) may be present; source: expressed and purified as described in Fung et al., 2015
binding result [8]: binds

B12: SMAD4 NES peptide (crystallised) (peptide)
peptide: YERVVSPGIDLSGLTLQ
notes: Mothers against decapentaplegic homolog 4 (SMAD4), residues 133-149; Extra N-terminal residues such as those printed for mDia2 (GGSY) and FMRP-1b (GGS) may be present; source: expressed and purified as described in Fung et al., 2015
binding result [8]: binds

B13: HDAC5 NES peptide (crystallised) (peptide)
peptide: EAETVSAMALLSVG
notes: Histone deacetylase 5 (HDAC5), residues 1082-1095; Extra N-terminal residues such as those printed for mDia2 (GGSY) and FMRP-1b (GGS) may be present; also called HDAC^NES; source: expressed and purified as described in Fung et al., 2015
binding result [8]: binds

B14: Paxillin NES peptide (crystallised) (peptide)
peptide: RELDELMASLSDFKFMAQ
notes: Paxillin, residues 264-281; Extra N-terminal residues such as those printed for mDia2 (GGSY) and FMRP-1b (GGS) may be present; also called Pax^NES; source: expressed and purified as described in Fung et al., 2015
binding result [8]: binds

NSNELALKLAGLDANKT [PKI NES(Φ4A) mutant (MBP fusion)]
Kd [1]: 150 µM

B15: Hxk2 peptide (crystallised, false positive NES) (peptide)
peptide: DVPKELMQQIENFEKIFTV
notes: Hexokinase-2 (Hxk2), residues 18-36; Extra N-terminal residues such as those printed for mDia2 (GGSY) and FMRP-1b (GGS) may be present; source: expressed and purified as described in Fung et al., 2015
binding result [9]: binds

B16: DEAF1 peptide (crystallised, false positive NES) (peptide)
peptide: SWLYLEEMVNSLLNTAQQ
notes: Deformed Epidermal Autoregulatory Factor 1 homolog (DEAF1), residues 452-469; Extra N-terminal residues such as those printed for mDia2 (GGSY) and FMRP-1b (GGS) may be present; also called DEAF^pep; source: expressed and purified as described in Fung et al., 2015
binding result [9]: binds

B17: MBP-CDC7 NES (peptide)
chain: QDLRKLCERLRGMDSSTP
notes: cell division cycle 7-related protein kinase (CDC7), residues 456-473; also called MBP-NES; not shown: MBP, N-terminal, kept
binding result [1]: binds

B18: MBP-X11L2 NES (peptide)
chain: SSLQELVQQFEALPGDLV
notes: also called MBP-NES; not shown: MBP, N-terminal, kept
binding result [1]: binds

B19: MBP-SMAD4 NES (peptide)
chain: YERVVSPGIDLSGLTLQ
notes: Mothers against decapentaplegic homolog 4 (SMAD4), residues 133-149; also called MBP-NES; not shown: MBP, N-terminal, kept
binding result [1]: binds

B20: MBP-FMRP NES (peptide)
chain: YLKEVDQLRLERLQI
notes: fragile X mental retardation protein (FMRP), residues 423-437; also called MBP-NES; not shown: MBP, N-terminal, kept
binding result [1]: binds
